Experimental data: the supplement of paper PMC7877785
± gives the uncertainty stated by the source.

Test: self-splicing fitness, log relative to wild type (ln ratio); higher = more splicing; Tetrahymena group I intron in knt gene, E. coli kanamycin selection, DiMSum; sequences stand for … in CUCUCU…GGAGGGAAAAGUUAUCAGGCAUGCACCUGGUAGCUAGUCUUUAAACCAAUAGAUUGCAUCGGUUUAAAAGGCAAGACCGUCAAAUUGCGGGAAAGGGGUCAACAGCCGUUCAGUACCAAGUCUCAGGGGAAACUUUGAGAUGGCCUUGCAAAGGGUAUGGUAAUAAGCUGACGGACAUGGUCCUAACCACGCAGCCAAGUCCUAAGUCAACAGAUCUUCUGUUGAUAUGGAUGCAGUUCACAGACUAAAUGUCGGUCGGGGAAGAUGUAUUCUUCUCAUAAGAUAUAGUCGGACCUCUCCUUAAUGGGAGCUAGCGGAUGAAGUGAUGCAACACUGGAGCCGCUGGGAACUAAUUUGUAUGCGAAAGUAUAUUGAUUAGUUUUGGAGUACUCGUGGUCG
Procedure, shortened: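 DiMSum derived fitness as the error-weighted combination of fold changes across replicates, kanamycin versus no kanamycin, normalised to wild type. E. coli BL21(DE3) held the library, which randomised all eight P1ex-region intron nucleotides within the knt kanamycin-resistance gene on pET-22b(+). Six replicate transformations grew overnight at 37°C or 30°C on LB agar with or without 25 μg/mL kanamycin, also containing 100 μg/mL carbenicillin, 50 μM IPTG and 0.2% rhamnose, and pooled colonies were amplicon-sequenced on an Illumina HiSeq 2500.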

Sequence | self-splicing fitness (ln) (30 °C) | self-splicing fitness (ln) (37 °C)
GAUGAGCAAUAUUACGGGGC | -3.24 ± 0.33 | -2.28 ± 0.23
GAUGAGCAAUAUUACGUAAA | -3.81 ± 0.17 | -1.37 ± 0.15
GAUGAGCAAUAUUACGUACC | -0.53 ± 0.35 | -1.77 ± 0.44
GAUGAGCAAUAUUACGUCAA | -3.32 ± 0.28 | -3.44 ± 0.37
GAUGAGCAAUAUUACGUCAC | -3.62 ± 0.4 | -2.47 ± 0.26
GAUGAGCAAUAUUACGUCGG | – | -2.87 ± 0.34
GAUGAGCAAUAUUACGUGGA | -2.47 ± 0.21 | -2.5 ± 0.22
GAUGAGCAAUAUUACGUUAA | -2.39 ± 0.32 | –
GAUUAGCAAUAUUACGAGAC | -1.51 ± 0.3 | -1.1 ± 0.22
GAUUAGCAAUAUUACGAGCU | -1.23 ± 0.088 | -0.791 ± 0.16
GAUUAGCAAUAUUACGAGUC | -3.17 ± 0.27 | -2.58 ± 0.33
GAUUAGCAAUAUUACGCAUU | -2.53 ± 0.14 | -2.25 ± 0.17
GAUUAGCAAUAUUACGCCUA | -0.405 ± 0.092 | 0.169 ± 0.095
GAUUAGCAAUAUUACGCGAU | -3.61 ± 0.37 | -1.27 ± 0.44
GAUUAGCAAUAUUACGGCGA | -1.12 ± 0.11 | -0.219 ± 0.11
GAUUAGCAAUAUUACGGCUC | 0.285 ± 0.096 | 0.441 ± 0.12
GAUUAGCAAUAUUACGGGCG | -1.63 ± 0.15 | -1.33 ± 0.17
GAUUAGCAAUAUUACGGUAC | -2.14 ± 0.37 | -0.994 ± 0.22
GAUUAGCAAUAUUACGGUGC | -1.8 ± 0.34 | -1.4 ± 0.32
GAUUAGCAAUAUUACGGUUC | -3.38 ± 0.18 | -1.96 ± 0.23
GAUUAGCAAUAUUACGGUUG | -1.43 ± 0.12 | -1.02 ± 0.15
GAUUAGCAAUAUUACGUCCG | -1.73 ± 0.25 | -2.61 ± 0.41
GAUUAGCAAUAUUACGUCUA | -1.14 ± 0.095 | -0.229 ± 0.085
GAUUAGCAAUAUUACGUCUC | -1.24 ± 0.33 | -0.965 ± 0.32
GAUUAGCAAUAUUACGUGGU | -2.61 ± 0.18 | -2.47 ± 0.2

Sequence | self-splicing fitness (ln) (30 °C) | self-splicing fitness (ln) (37 °C)
GCAAAGCAAUAUUACGAAAG | -2.86 ± 0.19 | -1.94 ± 0.21
GCAAAGCAAUAUUACGAAGA | -1.88 ± 0.18 | -2.45 ± 0.23
GCAAAGCAAUAUUACGAGCA | -2.04 ± 0.095 | -0.394 ± 0.08
GCAAAGCAAUAUUACGAUAC | -1.69 ± 0.1 | -0.587 ± 0.14
GCAAAGCAAUAUUACGAUCA | -1.4 ± 0.12 | -0.882 ± 0.11
GCAAAGCAAUAUUACGCACU | -0.557 ± 0.078 | 0.031 ± 0.092
GCAAAGCAAUAUUACGCCCC | -0.913 ± 0.19 | -0.135 ± 0.31
GCAAAGCAAUAUUACGCUAC | -2.2 ± 0.16 | -2.09 ± 0.26
GCAAAGCAAUAUUACGGAAU | -2.6 ± 0.1 | -0.938 ± 0.11
GCAAAGCAAUAUUACGGAGA | -2.82 ± 0.45 | –
GCAAAGCAAUAUUACGGGAA | -2.43 ± 0.1 | -0.474 ± 0.081
GCAAAGCAAUAUUACGGGUA | -1.55 ± 0.11 | -0.7 ± 0.097
GCAAAGCAAUAUUACGGUUG | -2.86 ± 0.13 | -2.04 ± 0.16
GCAAAGCAAUAUUACGUACU | -0.928 ± 0.067 | 0.299 ± 0.095
GCAAAGCAAUAUUACGUCAG | -3.89 ± 0.29 | -1.56 ± 0.16
GCAAAGCAAUAUUACGUCUG | -2.54 ± 0.11 | -1.69 ± 0.085
GCAAAGCAAUAUUACGUGAU | -0.863 ± 0.053 | -0.973 ± 0.075
GCAAAGCAAUAUUACGUGUA | -0.807 ± 0.071 | -0.701 ± 0.074
GCAAAGCAAUAUUACGUUCG | -1.51 ± 0.08 | -0.192 ± 0.12
GCAAAGCAAUAUUACGUUCU | -1.44 ± 0.094 | -0.638 ± 0.097
GCACAGCAAUAUUACGAACA | -1.42 ± 0.11 | -0.85 ± 0.1
GCACAGCAAUAUUACGAAGG | -1.31 ± 0.065 | -0.444 ± 0.096
GCACAGCAAUAUUACGAGCA | -1.55 ± 0.11 | -0.832 ± 0.12
GCACAGCAAUAUUACGAUCG | -1.08 ± 0.05 | -0.27 ± 0.069
GCACAGCAAUAUUACGCAUA | -0.997 ± 0.088 | -0.269 ± 0.085

Sequence | self-splicing fitness (ln) (30 °C) | self-splicing fitness (ln) (37 °C)
GCACAGCAAUAUUACGCCUU | -0.943 ± 0.092 | -0.623 ± 0.087
GCACAGCAAUAUUACGCGAA | -0.472 ± 0.066 | 0.308 ± 0.071
GCACAGCAAUAUUACGCGCU | -2.39 ± 0.22 | -1.1 ± 0.19
GCACAGCAAUAUUACGGGCA | -1.84 ± 0.11 | -0.886 ± 0.094
GCACAGCAAUAUUACGGUAU | -0.511 ± 0.038 | 0.102 ± 0.059
GCACAGCAAUAUUACGUCGU | -0.704 ± 0.083 | 0.241 ± 0.091
GCACAGCAAUAUUACGUGGA | -0.386 ± 0.064 | -0.281 ± 0.065
GCACAGCAAUAUUACGUGGU | -3.37 ± 0.12 | -1.82 ± 0.097
GCACAGCAAUAUUACGUGUA | -1.03 ± 0.052 | -0.512 ± 0.056
GCACAGCAAUAUUACGUGUG | -3.68 ± 0.16 | -2.22 ± 0.14
GCACAGCAAUAUUACGUUGA | -0.837 ± 0.071 | -0.158 ± 0.072
GCAGAGCAAUAUUACGAAAU | -4.35 ± 0.29 | -2.79 ± 0.26
GCAGAGCAAUAUUACGACAA | -1.8 ± 0.46 | -0.677 ± 0.43
GCAGAGCAAUAUUACGAGCG | -2.33 ± 0.29 | -1.41 ± 0.23
GCAGAGCAAUAUUACGAUUA | -2.28 ± 0.22 | 0.0469 ± 0.18
GCAGAGCAAUAUUACGAUUC | -2.56 ± 0.26 | -0.2 ± 0.22
GCAGAGCAAUAUUACGCAAA | -3.37 ± 0.38 | –
GCAGAGCAAUAUUACGCAGA | -2.78 ± 0.42 | -2.22 ± 0.34
GCAGAGCAAUAUUACGCCUU | – | -2.46 ± 0.33
GCAGAGCAAUAUUACGCGAG | -3.58 ± 0.35 | -2.46 ± 0.28
GCAGAGCAAUAUUACGCUAC | – | -1.68 ± 0.32
GCAGAGCAAUAUUACGCUUG | -3.5 ± 0.21 | -2.83 ± 0.31
GCAGAGCAAUAUUACGGAGU | -3.24 ± 0.2 | -2.05 ± 0.27
GCAGAGCAAUAUUACGGGUU | -3.83 ± 0.3 | -2.6 ± 0.3
GCAGAGCAAUAUUACGGUCG | -3.23 ± 0.12 | -1.44 ± 0.1

Sequence | self-splicing fitness (ln) (30 °C) | self-splicing fitness (ln) (37 °C)
GCAGAGCAAUAUUACGUCUA | -2.7 ± 0.23 | -2.57 ± 0.24
GCAGAGCAAUAUUACGUCUG | -3.95 ± 0.33 | -3.13 ± 0.47
GCAGAGCAAUAUUACGUGAC | -2.91 ± 0.12 | -1.54 ± 0.11
GCAGAGCAAUAUUACGUGGA | -2.94 ± 0.4 | -3.35 ± 0.39
GCAGAGCAAUAUUACGUGUA | -3.61 ± 0.35 | -1.17 ± 0.16
GCAGAGCAAUAUUACGUGUU | -4.35 ± 0.3 | -2.42 ± 0.18
GCAGAGCAAUAUUACGUUCC | – | -1.51 ± 0.29
GCAGAGCAAUAUUACGUUCU | -2.78 ± 0.24 | -2.18 ± 0.29
GCAGAGCAAUAUUACGUUGA | -2.53 ± 0.2 | -2.15 ± 0.25
GCAUAGCAAUAUUACGAAGA | -2 ± 0.23 | -0.497 ± 0.16
GCAUAGCAAUAUUACGAUGC | -2.72 ± 0.28 | –
GCAUAGCAAUAUUACGCAUG | -3.79 ± 0.23 | -2.12 ± 0.19
GCAUAGCAAUAUUACGCCUC | -1.01 ± 0.23 | -0.756 ± 0.28
GCAUAGCAAUAUUACGCGCG | -1.06 ± 0.079 | -0.259 ± 0.092
GCAUAGCAAUAUUACGCUAG | -2.24 ± 0.3 | -1.82 ± 0.23
GCAUAGCAAUAUUACGCUCC | -1.61 ± 0.17 | -1.94 ± 0.31
GCAUAGCAAUAUUACGCUGC | -3.08 ± 0.44 | -2.11 ± 0.37
GCAUAGCAAUAUUACGGAUA | -1.81 ± 0.22 | -0.643 ± 0.18
GCAUAGCAAUAUUACGGAUC | -2.47 ± 0.21 | -1.63 ± 0.18
GCAUAGCAAUAUUACGGCGC | -0.822 ± 0.17 | -0.485 ± 0.2
GCAUAGCAAUAUUACGGGAA | -2.52 ± 0.21 | -0.707 ± 0.12
GCAUAGCAAUAUUACGGGAG | -2.96 ± 0.19 | -0.949 ± 0.12
